Read-outs that look alike come from different tables or passages of the source.
Legend:
eIF4E [1] = target: T1, eIF4E (wheat, UniProt P29557 1-215); assay: EMSA
T1 sequence: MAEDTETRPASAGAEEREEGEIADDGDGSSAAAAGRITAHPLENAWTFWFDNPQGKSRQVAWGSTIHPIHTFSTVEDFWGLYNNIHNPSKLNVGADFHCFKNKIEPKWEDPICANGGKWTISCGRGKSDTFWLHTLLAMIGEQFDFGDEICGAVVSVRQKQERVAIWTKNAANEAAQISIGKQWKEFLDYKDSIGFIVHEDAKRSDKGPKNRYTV

eIF4E [2] = target: T1, eIF4E; assay: EMSA; remark: listed apart in the source

B1: PEMV2 A23G (structured_RNA)
RNA: GGUAGAACACGUGGGAUAGGGGGUGACCUUGUCGACCGGUUAUCGGUCCCCUGCUCCUUCGAGCUGGCAAGGCGCUCACAGGUUCUAC
B1: no binding (eIF4E [1]).

B2: PEMV2 C49U (structured_RNA)
RNA: GGUAGAACACGUGGGAUAGGGGAUGACCUUGUCGACCGGUUAUCGGUCUCCUGCUCCUUCGAGCUGGCAAGGCGCUCACAGGUUCUAC
B2: binds (eIF4E [1]).

B3: PEMV2 C50U (structured_RNA)
RNA: GGUAGAACACGUGGGAUAGGGGAUGACCUUGUCGACCGGUUAUCGGUCCUCUGCUCCUUCGAGCUGGCAAGGCGCUCACAGGUUCUAC
B3: no binding (eIF4E [1]).

B4: PEMV2 U24C (structured_RNA)
RNA: GGUAGAACACGUGGGAUAGGGGACGACCUUGUCGACCGGUUAUCGGUCCCCUGCUCCUUCGAGCUGGCAAGGCGCUCACAGGUUCUAC
B4: no binding (eIF4E [1]).

B5: PEMV2 G21A (structured_RNA)
RNA: GGUAGAACACGUGGGAUAGGAGAUGACCUUGUCGACCGGUUAUCGGUCCCCUGCUCCUUCGAGCUGGCAAGGCGCUCACAGGUUCUAC
B5: no binding (eIF4E [1]).

B6: PEMV2 C49U:G19A (structured_RNA)
RNA: GGUAGAACACGUGGGAUAAGGGAUGACCUUGUCGACCGGUUAUCGGUCUCCUGCUCCUUCGAGCUGGCAAGGCGCUCACAGGUUCUAC
B6: no binding (eIF4E [1]).

B7: PEMV2 U17C:A18U (structured_RNA)
RNA: GGUAGAACACGUGGGACUGGGGAUGACCUUGUCGACCGGUUAUCGGUCCCCUGCUCCUUCGAGCUGGCAAGGCGCUCACAGGUUCUAC
B7: binds (eIF4E [1]).

B8: PEMV2 U65C (structured_RNA)
RNA: GGUAGAACACGUGGGAUAGGGGAUGACCUUGUCGACCGGUUAUCGGUCCCCUGCUCCUUCGAGCCGGCAAGGCGCUCACAGGUUCUAC
B8: no binding (eIF4E [1]).

B9: PEMV2 U52C:A26G (structured_RNA)
RNA: GGUAGAACACGUGGGAUAGGGGAUGGCCUUGUCGACCGGUUAUCGGUCCCCCGCUCCUUCGAGCUGGCAAGGCGCUCACAGGUUCUAC
B9: no binding (eIF4E [1]).

B10: PEMV2 C50U:G20A (structured_RNA)
RNA: GGUAGAACACGUGGGAUAGAGGAUGACCUUGUCGACCGGUUAUCGGUCCUCUGCUCCUUCGAGCUGGCAAGGCGCUCACAGGUUCUAC
B10: no binding (eIF4E [1]).

B11: PEMV2 U52C (structured_RNA)
RNA: GGUAGAACACGUGGGAUAGGGGAUGACCUUGUCGACCGGUUAUCGGUCCCCCGCUCCUUCGAGCUGGCAAGGCGCUCACAGGUUCUAC
B11: no binding (eIF4E [1]).

B12: PEMV2 G21C (structured_RNA)
RNA: GGUAGAACACGUGGGAUAGGCGAUGACCUUGUCGACCGGUUAUCGGUCCCCUGCUCCUUCGAGCUGGCAAGGCGCUCACAGGUUCUAC
B12: no binding (eIF4E [1]).

B13: PEMV2 BL3-6 (crystallization, L1 mutant) (structured_RNA)
RNA: GGUAGAACACGUGGGAUAGGGGAUGACCUUGUCGACCGAAACACGGUCCCCUGCUCCUUCGAGCUGGCAAGGCGCUCACAGGUUCUACC
B13: binds (eIF4E [2]).
